Measurements taken from patent publication US20240261333A1 (published 2024).

Experiments:
Test in all cases: co-IP with anti-FLAG, mass spectrometry; lysate of cells with N-FLAG B3GNT2
RPL9 = RPL9 (human, UniProt P32969 1-192)
CCT7 = target: T1, CCT7 (human, UniProt Q99832-3 1-499, limits assumed)
T1 construct: also called NP_001159757.1 (+1)
T1 sequence (looked up): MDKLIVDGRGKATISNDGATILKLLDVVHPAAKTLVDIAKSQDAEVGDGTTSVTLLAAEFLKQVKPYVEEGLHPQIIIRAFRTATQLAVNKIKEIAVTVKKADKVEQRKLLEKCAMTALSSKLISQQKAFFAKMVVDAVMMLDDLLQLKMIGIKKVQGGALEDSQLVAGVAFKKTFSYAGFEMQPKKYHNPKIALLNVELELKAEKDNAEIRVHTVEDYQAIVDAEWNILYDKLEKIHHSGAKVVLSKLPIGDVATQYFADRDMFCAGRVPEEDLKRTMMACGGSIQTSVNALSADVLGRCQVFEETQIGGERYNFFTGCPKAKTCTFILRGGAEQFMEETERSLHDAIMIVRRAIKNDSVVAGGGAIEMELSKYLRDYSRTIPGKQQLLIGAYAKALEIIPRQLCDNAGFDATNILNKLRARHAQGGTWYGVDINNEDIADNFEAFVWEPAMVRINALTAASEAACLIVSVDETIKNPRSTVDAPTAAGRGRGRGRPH

MAGT1 = target: T2, MAGT1 (human, UniProt Q9H0U3 30-335, limits assumed)
T2 construct: also called NP_115497.4
T2 sequence (looked up): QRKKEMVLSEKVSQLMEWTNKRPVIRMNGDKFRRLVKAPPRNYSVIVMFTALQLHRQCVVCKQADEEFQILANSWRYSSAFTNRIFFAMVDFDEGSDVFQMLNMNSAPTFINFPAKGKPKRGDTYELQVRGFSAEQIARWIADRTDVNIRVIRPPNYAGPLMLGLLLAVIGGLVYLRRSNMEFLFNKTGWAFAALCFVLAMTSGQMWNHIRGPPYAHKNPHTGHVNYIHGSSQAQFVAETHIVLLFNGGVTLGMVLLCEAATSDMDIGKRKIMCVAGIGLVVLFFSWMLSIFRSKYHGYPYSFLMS

CCT2 = target: T3, CCT2 (human, UniProt P78371-2 1-488, limits assumed)
T3 construct: also called NP_001185771.1 (+1)
T3 sequence (looked up): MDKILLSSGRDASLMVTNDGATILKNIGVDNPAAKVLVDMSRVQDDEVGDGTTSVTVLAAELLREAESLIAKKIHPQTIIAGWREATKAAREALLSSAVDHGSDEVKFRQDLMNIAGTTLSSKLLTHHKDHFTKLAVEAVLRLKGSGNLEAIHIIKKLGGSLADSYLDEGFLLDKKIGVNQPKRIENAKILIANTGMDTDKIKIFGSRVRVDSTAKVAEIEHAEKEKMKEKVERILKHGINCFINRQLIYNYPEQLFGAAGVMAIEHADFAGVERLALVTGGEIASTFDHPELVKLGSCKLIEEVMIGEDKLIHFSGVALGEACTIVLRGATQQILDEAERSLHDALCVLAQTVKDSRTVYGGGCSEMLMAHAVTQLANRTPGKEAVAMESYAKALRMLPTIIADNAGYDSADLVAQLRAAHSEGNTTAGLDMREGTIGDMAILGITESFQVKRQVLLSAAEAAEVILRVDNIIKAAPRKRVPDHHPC

RPL32 = RPL32 (human, UniProt P62910 2-135)

Measured: co-IP mass spectrometry count

B1: N-terminal FLAG tagged B3GNT2 (enzyme, human, UniProt Q9NY97 1-397, looked up)
chain: MSVGRRRIKLLGILMMANVFIYFIMEVSKSSSQEKNGKGEVIIPKEKFWKISTPPEAYWNREQEKLNRQYNPILSMLTNQTGEAGRLSNISHLNYCEPDLRVTSVVTGFNNLPDRFKDFLLYLRCRNYSLLIDQPDKCAKKPFLLLAIKSLTPHFARRQAIRESWGQESNAGNQTVVRVFLLGQTPPEDNHPDLSDMLKFESEKHQDILMWNYRDTFFNLSLKEVLFLRWVSTSCPDTEFVFKGDDDVFVNTHHILNYLNSLSKTKAKDLFIGDVIHNAGPHRDKKLKYYIPEVVYSGLYPPYAGGGGFLYSGHLALRLYHITDQVHLYPIDDVYTGMCLQKLGLVPEKHKGFRTFDIEEKNKNNICSYVDLMLVHSRKPQEMIDIWSQLQSAHLKC
notes: Bait of the co-IP; pulled down with mouse anti-FLAG (Millipore Sigma F3165) from cell lysate; also called N-FLAG B3GNT2; N-term FLAG; not shown: N-terminal FLAG tag
0: all assays above
